# Source: US20200392236A1 (JUNO THERAPEUTICS, published 2020)
# T1: BCMA peptide 30SNTPPLTCQR39 (human)
# T1 construct: Peptide of the CLIPS library; recognised in a linear form
# T1 peptide: SNTPPLTCQR
# T2: human BCMA (B-cell maturation antigen) on cells (human, UniProt Q02223 1-184)
# T2 construct: whole, on cells; also called hBCMA; hBCMA/HEK293 cell line
# T2 sequence (looked up): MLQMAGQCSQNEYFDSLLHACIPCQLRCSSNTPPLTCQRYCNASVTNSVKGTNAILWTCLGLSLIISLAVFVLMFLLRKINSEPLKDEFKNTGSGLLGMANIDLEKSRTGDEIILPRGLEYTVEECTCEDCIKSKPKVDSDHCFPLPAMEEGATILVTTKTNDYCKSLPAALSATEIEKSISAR
# Columns and labels:
# [1] = biological target: T1, BCMA peptide 30SNTPPLTCQR39; assay: CLIPS peptide array ELISA
# Procedure: Epitopes recognized, e.g., specifically bound to, by exemplary anti-BCMA scFv clones (BCMA-1, BCMA-5, BCMA-9, BCMA-23, BCMA-25, BCMA-26, BCMA-52 and BCMA-55 anti-BCMA scFvs), were assessed using full discontinuous epitope mapping by Chemical Linkage of Peptides onto Scaffolds (CLIPS; Pepscan Presto BV, Lelystad, The Netherlands; see, e.g., Timmerman et al., (2007) J. Mol. Recognit. 20: 283-329). Mapping was carried out using anti-BCMA scFv clones, such as those fused with mouse Fc (scFv-mFc).
# Linear and conformational peptide libraries of amino acid residues 1-54 of human BCMA (set forth as amino acid residues 1-54 of SEQ ID NO:367) were generated based on a combinatorial matrix design. Linear peptides and structural mimetics including single loop, α-helix, β-turn, combinatorial and linear disulfide bridge mimics, and discontinuous epitope mimics were used, along with positive and negative control peptides, on an amino-functionalized solid support.
# Affinities for binding to the peptides in the epitope library were determined using ELISA. The peptide arrays were incubated with a solution containing the scFv overnight at 4° C. Affinity information was used in iterative screens to define the sequence and conformation of epitopes. Heat maps of affinity information for two or more loops were generated.
# [2] = biological target: T2, human BCMA (B-cell maturation antigen) …; assay: flow cytometry, hBCMA-overexpressing HEK293 compared with OPM2 and RPMI-8226 cells
# Procedure: Binding of exemplary scFv clones to hBMCA-overexpressing HEK293 cells as compared to OPM2 and RPMI-8226 cell lines that express moderate levels of endogenous BCMA was assessed.
# [3] = biological target: T2, human BCMA (B-cell maturation antigen) …; assay: flow cytometry, hBCMA-expressing HEK293 against parental HEK293 cells
# Procedure: Binding of exemplary scFv clones to hBMCA-expressing HEK293 cells was assessed and binding was compared to parental HEK293 cells.
Binder,binding result [1],binding result [2],fold selective binding (hBCMA-expressing HEK293 over parental HEK293 cells) [3] [fold]
"BCMA-25 anti-BCMA scFv (scFv, VH-(G4S)3-VL scFv) scFv: EVQLVQSGGGLVQPGRSLRLSCTASGFTFGDYAMSWFRQAPGKGLEWVGFIRSKAYGGTTEYAASVKGRFTISRDDSKSIAYLQMNSLKTEDTAVYYCAAWSAPTDYWGQGTLVTVSSGGGGSGGGGSGGGGSDIQMTQSPAFLSASVGDRVTVTCRASQGISNYLAWYQQKPGNAPRLLIYSASTLQSGVPSRFRGTGYGTEFSLTIDSLQPEDFATYYCQQSYTSRQTFGPGTRLDIK",binds,,
"BCMA-8 anti-BCMA scFv (scFv, VH-(G4S)3-VL scFv) scFv: QVQLVQSGGGLVQPGRSLRLSCTASGFTFGDYAMSWFRQAPGKGLEWVGFIRSKAYGGTTEYAASVKGRFTISRDDSKSIAYLQMNSLKTEDTAVYYCAAWSAPTDYWGQGTLVTVSSGGGGSGGGGSGGGGSDIVMTQSPDSLAVSLGERATINCKSSQSVLYSSNNKNYLAWYQQKPGQPPKLLIYWASTRESGVPDRFSGSGSGTDFTLTISSLQAEDVAVYYCQQYYSTPYTFGQGTKLEIK",,binds,
"BCMA-3 anti-BCMA scFv (scFv, VH-(G4S)3-VL scFv) scFv: QVQLVQSGGGLVQPGRSLRLSCTASGFTFGDYAMSWFRQAPGKGLEWVGFIRSKAYGGTTEYAASVKGRFTISRDDSKSIAYLQMNSLKTEDTAVYYCAAWSAPTDYWGQGTLVTVSSGGGGSGGGGSGGGGSDIVMTQSPDSLVVSLGERATINCKSSQSVLHSSNNKNYLAWYQQKPGQPPKLLIYWASTRESGVPDRFSGSGSGTDFTLTISSLQAEDVAVYYCQQYYTTPLTFGGGTKVEIK",,binds,
"BCMA-31 anti-BCMA scFv (scFv, VH-(G4S)3-VL scFv) scFv: EVQLVQSGGGLVQPGRSLRLSCTASGFTFGDYAMSWFRQAPGKGLEWVGFIRSKAYGGTTEYAASVKGRFTISRDDSKSIAYLQMNSLKTEDTAVYYCAAWSAPTDYWGQGTLVTVSSGGGGSGGGGSGGGGSDVVMTQSPDSLAVSLGERATISCKSSQSVLNSSNNKNYVAWYKQKPGQPPKLVISWASTRESGVPDRFSGSGSGTDFTLTISSLQAEDVAVYYCQQYYSTPYTFGQGTKLDIK",,binds,
"BCMA-1 anti-BCMA scFv (scFv, VH-(G4S)3-VL scFv) scFv: QVQLVQSGGGLVQPGRSLRLSCTASGFTFGDYAMSWFRQAPGKGLEWVGFIRSKAYGGTTEYAASVKGRFTISRDDSKSIAYLQMNSLKTEDTAVYYCAAWSAPTDYWGQGTLVTVSSGGGGSGGGGSGGGGSDIVMTQSPDSLSVSPGERATISCKSSQSVLSTSNNKNYLAWYQQKPGQPPRLLLYWASTREAGVPDRFSGSGSGTDFTLTISSLQAEDVAVYYCQQYFSSPYTFGHGTKLEIK",binds,binds,
"BCMA-7 anti-BCMA scFv (scFv, VH-(G4S)3-VL scFv) scFv: QVQLVQSGGGLVQPGRSLRLSCTASGFTFGDYAMSWFRQAPGKGLEWVGFIRSKAYGGTTEYAASVKGRFTISRDDSKSIAYLQMNSLKTEDTAVYYCAAWSAPTDYWGQGTLVTVSSGGGGSGGGGSGGGGSVIQLTQSPSSLSASVGDRVTITCRASQDIGDYLAWFQQRPGKAPKSLIYVASTLQSGVPSRFSGSGSGTHFTLTINSLQPEDFATYYCQQYHSHPWTFGPGTKVDIK",,binds,
"BCMA-9 anti-BCMA scFv (scFv, VH-(G4S)3-VL scFv) scFv: EVQLVQSGGGLVKPGGSLRLSCAASGFTFSDYYMSWIRQAPGKGLEWVSYISSSGSTIYYADSVKGRFTISRDNAKNSLYLQMNSLRAEDTAVYYCARVDGDYVDDYWGQGTLVTVSSGGGGSGGGGSGGGGSSYELTQPPSVSVAPGQTARVTCGANNIGSKSVHWYQQKPGQAPMLVVYDDDDRPSGIPERFSGSNSGNTATLTISGVEAGDEADYFCHVWDRSRDHYVFGTGTKLTVL",,binds,
"BCMA-20 anti-BCMA scFv (scFv, VH-(G4S)3-VL scFv) scFv: EVQLLESGGGLVQPGRSLRLSCAASGFTFDDYAMHWVRQAPGKGLEWVSGISWNSGSIGYADSVKGRFTISRDNAKNSLYLQMNSLRAEDTALYYCAKGGLGITPYYFDYWGQGTLVTVSSGGGGSGGGGSGGGGSQPVLTQPPSASGTPGQRVTISCSGGKTVNWFRQVPGTAPQLLIYSNDQRPSGVPDRFSGSKSGSSASLDISGLQSEDEAYYYCGSWDDSLNAWVFGGETKLTVL",,,10.8
"BCMA-2 anti-BCMA scFv (scFv, VH-(G4S)3-VL scFv) scFv: EVQLVESGGGLVKPGGSLRLSCAASGFTFSDYYMSWIRQAPGKGLEWVSYISSSGSTIYYADSVKGRFTISRDNAKNSLYLQMNSLRAEDTAVYYCAKVDGPPSSDIWGQGTMVTVSSGGGGSGGGGSGGGGSEIVMTQSPATLSVSPGETATLSCRASQSIKTNLAWYQQKPGQAPRLLIYAASTRATGIPDRFSGSGSGTDFTLTITRLEPEDFAVYYCQQYGSSPTFGRGTKLEIK",,binds,
"BCMA-18 anti-BCMA scFv (scFv, VH-(G4S)3-VL scFv) scFv: EVQLLESGGGLVQPGGSLRLSCAASGFTFSSYWMSWHRQAPGKGPEWVAHINQDGSEKYYVDSVKGRFTISRDNAESSLYLQMNSLRAEDTAVYYCARWLAVTNWGQGTLVTVSSGGGGSGGGGSGGGGSQSVLTQPPSASGTPGQRVTISCSGSGSNIGSNDVSWYQQIPGTAPKLLIYWNDQRPSGVPDRFSGSKSGTSASLAISGLRSEDEADYYCAAWDDSLNGWVFGGGTKLTVL",,,2.2
"BCMA-21 anti-BCMA scFv (scFv, VH-(G4S)3-VL scFv) scFv: EVQLVESGGGLVKPGGSLKLSCAASGFTFSDYYMSWIRQAPGKGLEWVSYISSSGSTIYYADSVKGRFTISRDNAKNSLYLQMNSLRAEDTAVYYCAKVDGGYTEDYWGQGTLVTVSSGGGGSGGGGSGGGGSQSVLTQPPSASGTPGQRVTISCSGSGSNIGSNDVSWYQQIPGTAPKLLIYWNDQRPSGVPDRFSGSKSGISASLAISGLRSEDEADYYCAAWDDSLNGYVFGTGTKVTVL",,,3.4
"BCMA-12 anti-BCMA scFv (scFv, VH-(G4S)3-VL scFv) scFv: EVQLVESGGGLVKPGGSLRLSCAASGFTFSDYYMSWIRQAPGKGLEWVSYISSSGSTIYYADSVKGRFTISRDNAKNSLYLQMNSLRAEDTAVYYCAKVDGPPSFDIWGQGTMVTVSSGGGGSGGGGSGGGGSQSALTQPPSVSAAPGQKVTISCSGSRSNIGNNYVSWYQQLPGTAPKLLIYDNAKRPSGIPDRFSGSKSGTSATLDIAGLQTGDEADYYCQVWDSSSDHWVFGGGTKLTVL",,binds,
"BCMA-22 anti-BCMA scFv (scFv, VH-(G4S)3-VL scFv) scFv: EVQLVESGGGLVKPGGSLRLSCAASGFTFSDYYMSWIRQAPGKGLEWVSYISSSGSTIYYADSVKGRFTISRDNAKNSLYLQMNSLRAEDTAVYYCAKVDGDYTEDYWGQGTLVTVSSGGGGSGGGGSGGGGSQSALTQPASVSGSPGQSITISCTGSSSDVGKYNLVSWYQQPPGKAPKLIIYDVNKRPSGVSNRFSGSKSGNTATLTISGLQGDDEADYYCCSYGGSRSYVFGTGTKVTVL",,,7.5
"BCMA-23 anti-BCMA scFv (scFv, BCMA-22 with the first residue of CDR-L3 (cysteine) replaced by serine) scFv: EVQLVESGGGLVKPGGSLRLSCAASGFTFSDYYMSWIRQAPGKGLEWVSYISSSGSTIYYADSVKGRFTISRDNAKNSLYLQMNSLRAEDTAVYYCAKVDGDYTEDYWGQGTLVTVSSGGGGSGGGGSGGGGSQSALTQPASVSGSPGQSITISCTGSSSDVGKYNLVSWYQQPPGKAPKLIIYDVNKRPSGVSNRFSGSKSGNTATLTISGLQGDDEADYYCSSYGGSRSYVFGTGTKVTVL",binds,,
"BCMA-32 anti-BCMA scFv (scFv, VH-(G4S)3-VL scFv) scFv: QVQLVESGGGLVKPGGSLRLSCAASGFTFSDYYMSWIRQAPGKGLEWVSYISSSGSTIYYADSVKGRFTISRDNAKNSLYLQMNSLRAEDTAVYYCAKVDGPPSFDIWGQGTMVTVSSGGGGSGGGGSGGGGSQTVVTQPPSVSVAPGQTARITCGGNNIGSKGVHWYRQRPGQAPEVVIYDDSDRPSGVPDRFSGSNSGNTATLTVRGVEAGDEADYYCQVWDSSSDHWVFGGGTKLTVL",,binds,
"BCMA-10 anti-BCMA scFv (scFv, VH-(G4S)3-VL scFv) scFv: EVQLVESGGGLVKPGGSLRLSCAASGFPFSDYYMSWIRQAPGKGLEWVSYISSSGSTIYYADSVKGRFTISRDNAKNSLYLQMNSLRAEDTAVYYCAKVDGPPSFDIWGQGTMVTVSSGGGGSGGGGSGGGGSSYVLTQPPSVSVAPGQTARITCGGNNIERKNVHWYQQKPGQAPVPVVYDDSDRASGIPERFSASNSGNTATLTISGAQATDEAEYYCQAWDSSSTLYVFGTGTKLTVL",,binds,
"BCMA-4 anti-BCMA scFv (scFv, VH-(G4S)3-VL scFv) scFv: QVQLVQSGGGLVQPGRSLRLSCTASGFTFGDYAMSWFRQAPGKGLEWVGFIRSKAYGGTTEYAASVKGRFTISRDDSKSIAYLQMNSLKTEDTAVYYCAAWSAPTDYWGQGTLVTVSSGGGGSGGGGSGGGGSAIRMTQSPSSLSASLGDRVTITCRASQDIRNSLAWYQQRPGKAPKLLLSAASRLESGVPSRFSGTTSGAEYALSISSLQPEDVASYFCQQYYSLPLSFGGGTKVEIK",,binds,
